Blank lines part the entries; values can stand above or below the binder they belong to.
Tests used:
[1] = target: T1, human 5T4 on cells (human, UniProt Q13641 32-420); assay: flow cytometry, CHO/5T4 cells, PE goat anti-human Fc
T1 construct: also called TPBG; hu5T4
T1 sequence: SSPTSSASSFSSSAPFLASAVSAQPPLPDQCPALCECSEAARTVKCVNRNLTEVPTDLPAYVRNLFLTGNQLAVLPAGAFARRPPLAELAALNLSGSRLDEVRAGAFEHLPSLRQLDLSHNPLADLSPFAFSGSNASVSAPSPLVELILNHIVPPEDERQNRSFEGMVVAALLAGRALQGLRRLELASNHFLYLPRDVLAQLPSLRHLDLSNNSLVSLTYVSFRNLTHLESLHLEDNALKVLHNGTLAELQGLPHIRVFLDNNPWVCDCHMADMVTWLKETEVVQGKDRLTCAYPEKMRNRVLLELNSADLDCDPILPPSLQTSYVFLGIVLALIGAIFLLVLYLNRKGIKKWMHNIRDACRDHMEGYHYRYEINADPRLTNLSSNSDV
Protocol: A 3-fold titration of ALG.APV-210 construct (ranging from 100 nM to 0.14 nM) was incubated with the human 5T4-expressing cell lines for 40 minutes in FACS buffer at 4° C., washed 3 times, and detected with PE-labeled, goat-anti-human Fc secondary antibody (Jackson ImmunoResearch). Binding of ALG.APV-210 was detected by flow cytometry. All samples were run in duplicates. Nonlinear regression analysis to determine EC₅₀ values was performed in GraphPad Prism 6® graphing and statistics software.

[2] = target: T1, human 5T4 on cells; assay: flow cytometry, B16-hu5T4 cells, streptavidin-PE, normalized MFI of 2 pooled experiments
Protocol: (§1) Prior to the FACS staining, all cell lines were characterized for their 5T4 expression levels using a receptor density kit (Quantum Simply Cellular, anti-human IgG, Bangs Laboratories, Inc). Adherent cell lines were cultured according to their supplier's instructions and were harvested from their cell culture flasks using Trypsin/EDTA, counted in R10 medium in a Burker chamber, and diluted in FACS buffer (PBS+0.5% BSA, 0.05% NaN₃) to a concentration of 4×10⁶ cells/mL. 50 μL (0.20×10⁶) of cell solution was added to a 96-well FACS staining plate (Falcon #351190). Cells were incubated for 20 min in 4° C. with 50 μL of the biotinylated ALG.APV-210 (2× final concentration). The antibodies were added in a serial dilution starting at 20 μg/mL titrating down in a 12 step ½ dilution down to 0.010 μg/mL. Following 2× washing with FACS buffer, cells were incubated for 30 min in 4° C. with 100 μL of a secondary antibody (streptavidin-PE, BD #554061, diluted 1/500). […] Cells were analysed for ALG.APV-210 binding using flow cytometry (FACSVerse) by gating on single cells. MFI values (secondary antibody only subtracted) from 1 out of 2 independent experiments, as well as normalized data and EC₅₀-values of pooled data from 2 experiments were determined and plotted using GraphPad Prism 7, non-linear regression log (agonist) vs. normalized response—variable slope.

[3] = target: T1, human 5T4 on cells; assay: flow cytometry, CT26 cells transfected with human 5T4 (intermediate clone), biotinylated ALG.APV-210 + streptavidin-PE, 1 of 2 experiments
Protocol: as §1, with “μg/mL.” for “μg/mL. Following 2× washing with FACS buffer, cells were incubated for 30 min in 4° C. with 100 μL of a secondary antibody (streptavidin-PE, BD #554061, diluted 1/500).”
The binding (EC₅₀) of the biotinylated ALG.APV-210 to 5T4 when expressed on cells, either at endogenous levels on human tumor cells or on cells transfected to express 5T4 was assessed. […]

[4] = target: T2, human CD137 on cells (human, UniProt Q07011 24-255); assay: flow cytometry, CHO-K1 cells expressing human CD137, PE anti-human IgG Fc secondary, MFI (median)
T2 construct: also called 4-1BB; TNFRSF9 (CHO-K1/human CD137 cells)
T2 sequence (Q07011 24-255 limits assumed): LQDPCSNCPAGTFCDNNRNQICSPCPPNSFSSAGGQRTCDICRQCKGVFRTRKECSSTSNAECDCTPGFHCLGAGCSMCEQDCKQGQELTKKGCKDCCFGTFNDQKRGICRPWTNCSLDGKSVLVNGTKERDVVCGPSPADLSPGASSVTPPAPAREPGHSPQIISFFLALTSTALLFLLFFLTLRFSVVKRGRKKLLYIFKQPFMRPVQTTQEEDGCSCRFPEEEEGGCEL
Protocol: Binding studies on CHO-K1 cells lines expressing CD137 were performed by standard flow cytometry-based staining procedures. CHO-K1 cells (generated by Alligator) were transfected with human or cynomolgus macaque CD137. A typical experiment would label approximately 100,000 cells per well, in 96-well plates, with a range of 100 nM to 0.05 nM binding molecule in 50 μL of saline buffer with 2% BSA and 2 mM EDTA, for 30 min on ice, followed by washes and incubation with PE-labeled secondary antibody, goat anti-human IgG Fcγ ([…]), for 20 minutes on ice. Signal from bound molecules was detected using a LSR-II™ or a Symphony A3 flow cytometer (BD Biosciences) and analyzed by FlowJo flow cytometry analysis software. Median fluorescence intensity (MFI-median) of bound molecules on live cells was determined after exclusion of doublets cells. Nonlinear regression analysis to determine EC₅₀ values was performed in GraphPad Prism 6® graphing and statistics software.

[5] = target: T1, human 5T4 on cells; assay: flow cytometry, SKOV-3 cells (endogenous human 5T4), labelled anti-human IgG secondary, MFI (mean)
Protocol: Binding studies were performed by standard flow cytometry-based staining procedures two cell lines expressing 5T4:CHO-K1 cells (obtained from Alligator) transduced with human or cynomolgus macaque 5T4 and SKOV-3 human ovarian adenocarcinoma cells which express (human) 5T4. All labeling and washes were performed in U-bottom 96-well plates in saline buffer with 0.1% BSA and 2 mM EDTA. Cell were plated at approximately 100,000 cells per well and incubated with a range of 100 nM to 0.05 nM concentrations of test molecules in […], for 30 minutes on ice. Cells were washed three times then incubated for another 30 min on ice with fluorescently-labeled secondary polyclonal antibody, F(ab′)² goat anti-human IgG (Jackson ImmunoResearch Laboratories). The cells were then washed twice and the samples acquired in a BD LSRII or a Symphony A3 flow cytometer. The sample files were analyzed using FlowJo software; the mean fluorescence intensity (MFI-mean) or median fluorescence intensity (MFI-median) of the live population of cells in each well was calculated after gating on live cells (forward vs side scatter). Nonlinear regression analysis to determine EC₅₀ values was performed in GraphPad Prism 6® graphing and statistics software.

EC50 [1]: 10 nM
B1: ALG.APV-210 (bispecific antibody)
chain: EVQLLESGGGLVQPGGSLRLSCAASGFTFSHGSMYWVRQAPGKGLEWVSSISSGSGSTYYADSVKGRFTISHDNSKNTLYLQMNSLRAEDTAVYYCARSSYYGSYYSIDYWGQGTLVTVSSGGGGSGGGGSGGGGSGGGGSDIQMTQSPSSLSASVGDRVTITCRASQSISSYLNWYQQKPGKAPKLLIYAASSLQSGVPSRFSGSGSGTDFTLTISSLQPEDFATYYCQQYYDNLPTFGQGTKLEIKEPKSSDKTHTCPPCPAPEAAGAPSVFLFPPKPKDTLMISRTPEVTCVVVDVSHEDPEVKFNWYVDGVEVHNAKTKPREEQYNSTYRVVSVLTVLHQDWLNGKEYKCAVSNKALPAPIEKTISKAKGQPREPQVYTLPPSRDELTKNQVSLTCLVKGFYPSDIAVEWESNGQPENNYKTTPPVLDSDGSFFLYSKLTVDKSRWQQGNVFSCSVMHEALHNHYTQKSLSLSPGSGGGGSGGGGSGGGGSPSEVQLLESGGGLVQPGGSLRLSCAASGFTFSSYAMSWVRQAPGKCLEWVSAISGSGGSTYYADSVKGRFTISRDNSKNTLYLQMNSLRAEDTAVYYCARYYGGYYSAWMDYWGQGTLVTVSSGGGGSGGGGSGGGGSGGGGSDIQMTQSPSSLSASVGDRVTITCRASQSISSFLNWYQQKPGKAPKLLIYAASSLQSGVPSRFSGSGSGTDFTLTISSLQPEDSATYYCQQTYGYLHTFGCGTKLEIKR
notes: Optimized ADAPTIR scFv-Fc-scFv homodimer with stabilizing disulfide in the 1210 scFv; also called 5T4-CD137 bispecific antibody

B2: biotinylated ALG.APV-210 (bispecific antibody)
chain: B1 chain
notes: also called ALG.APV-210 (biotinylated for FACS detection)
EC50 [2]: 14 nM | EC50 (read off the curve) [3]: ~10 nM

EC50 [4]: 0.9 nM | EC50 [5]: 9.2 nM | Maximum MFI [5]: 1800
B3: ALG.APV-187 (bispecific antibody)
chain: EVQLLESGGGLVQPGGSLRLSCAASGFTFSHGSMYWVRQAPGKGLEWVSSISSGSGSTYYADSVKGRFTISHDNSKNTLYLQMNSLRAEDTAVYYCARSSYYGSYYSIDYWGQGTLVTVSSGGGGSGGGGSGGGGSGGGGSDIQMTQSPSSLSASVGDRVTITCRASQSISSYLNWYQQKPGKAPKLLIYAASSLQSGVPSRFSGSGSGTDFTLTISSLQPEDFATYYCQQYYDNLPTFGQGTKLEIKSSEPKSSDKTHTCPPCPAPEAAGAPSVFLFPPKPKDTLMISRTPEVTCVVVDVSHEDPEVKFNWYVDGVEVHNAKTKPREEQYNSTYRVVSVLTVLHQDWLNGKEYKCAVSNKALPAPIEKTISKAKGQPREPQVYTLPPSRDELTKNQVSLTCLVKGFYPSDIAVEWESNGQPENNYKTTPPVLDSDGSFFLYSKLTVDKSRWQQGNVFSCSVMHEALHNHYTQKSLSLSPGSGGGGSGGGGSGGGGSPSEVQLLESGGGLVQPGGSLRLSCAASGFTFSSYAMSWVRQAPGKCLEWVSAISGSGGSTYYADSVKGRFTISRDNSKNTLYLQMNSLRAEDTAVYYCARYYGGYYSAWMDYWGQGTLVTVSSGGGGSGGGGSGGGGSGGGGSDIQMTQSPSSLSASVGDRVTITCRASQSISSFLNWYQQKPGKAPKLLIYAASSLQSGVPSRFSGSGSGTDFTLTISSLQPEDSATYYCQQTYGYLHTFGCGTKLEIKR
notes: Optimized ADAPTIR scFv-Fc-scFv homodimer with stabilizing disulfide in the 1210 scFv

Reference: patent publication US20190016816A1 (APTEVO RESEARCH AND DEVELOPMENT, published 2019)
